Test results: publication PMC6754406, “Ran pathway-independent regulation of mitotic Golgi disassembly by Importin-α” (Nature Communications, 2019)
Values belong to the molecule of their own block, whether it stands above or below them.

Tests used:
[1] = system: Importin-β (HEK293T cell lysate); test: GST pulldown of Importin-β from HEK293T cell lysates; type: binding
Protocol: HEK293T cells were lysed in RIPA buffer containing 50 mM Tris, 150 mM NaCl, 1% NP-40, 1% sodium deoxycholate, 0.1% SDS, 1 mM phenylmethyl sulphonyl fluoride, 1 μg/ml aprotinin, and 1 μg/ml leupeptin. Supernatants were collected after centrifugation at 21,000×g for 10 min at 4 °C. Cell lysates were incubated with 5 µM of GST-GM130-WT, GST-GM130-S25D, or GST-GM130-S25D/K34A, and glutathione-coupled sepharose beads (GE Healthcare). After three pre-washes with buffer containing 150 mM NaCl, proteins were eluted using a buffer containing 50 mM of reduced glutathione. Eluted proteins were analyzed by SDS–PAGE, followed by Western blotting using antibodies against GM130 (Abcam ab52649), Importin-α (R&D Systems MAB6207), and Importin-β (Abcam ab2811). Uncropped scans of Western blots are provided in Supplementary Fig. 7.
Sup ple me ntary Figure 3. GM 130 is resistant to IBB displacement upon in teracting with […]
a-d, a, SE C (Superdex 200) elution profile for full-length Importin-α•GST-GM130-S25D (re d line ), full-length Importin-α (blue line), an d G ST-GM130-WT (green line). […] Th e v o i d volum e (Vo) is indicated. e, Western blotting analysis of Importin-α pull-down by GST-GM130-WT and GST-GM130-S25D from HEK293T ce l l l ys at es. […] Data repres ent mean ± standard deviation from three independent experiments. […]

[2] = molecular target: p115-CTD (a.a. 780–930); test: Isothermal titration calorimetry (ITC), p115-CTD; details: ITC (MicroCal iTC200), 25 °C, 20 mM HEPES pH 7.4, 1 mM DTT, 50 mM NaCl; one-sites binding model
Text: Phosphorylation of GM130 on Ser-25 is correlated with p115 dissociation, with this process appearing to be specific to mitosis and being responsible for reduction of p115-mediated vesicle fusion to Golgi membranes[5]–[7],[9],[10]. The N-terminal region of GM130 and the p115 C-terminus interact[11],[12], so we purified recombinant proteins containing these two regions and then assessed their binding affinity by isothermal titration calorimetry (ITC). The wild type GM130 N-terminal region (a.a. 1-85; hereafter GM130-WT) directly bound p115 (a.a. 780–930; hereafter p115-CTD) (Fig. 1a). Furthermore, we examined if GM130 phosphorylation reduces the binding affinity for p115. […] We found in competition-binding assays that p115-CTD pulldown by GST-GM130-S25D was reduced when we added increasing amounts of Importin-α lacking the IBB domain (a.a. 70–524; hereafter Importin-α(ΔIBB)) (Fig. 1c). […]
To purify p115 (a.a. 780–930), cells containing p115 (a.a. […]) were resuspended in a buffer containing 50 mM K-phosphate (pH 7.4), 150 mM NaCl, and 2 mM β-mercaptoethanol. […] Fractions containing p115 protein were pooled and loaded into SEC (Superdex 75 16/600) and analyzed by SDS–PAGE. […]
Binding affinities of different GM130 proteins to Importin-α and Importin-β were measured by ITC (MicroCal iTC200). […] Protein concentrations were determined spectrophotometrically with respective extinction coefficients. […]

[3] = system: p115-CTD; test: Competition binding assay, p115-CTD remaining on GST-GM130 in presence of Importin-α FL; details: 40 μM Importin-α FL; three independent experiments
Protocol: Fig. 3 GM130 interacts with full-length Importin-α. a, b ITC titration curves (upper) and binding isotherms (lower) of Importin-α FL with GM130-NLS WT (a) and GM130-NLS phospho-S25 (b). Kd values are indicated. c Pulldown assays of Importin-α FL with GM130-WT or GM130-S25D. GST-tagged GM-130-WT or GM130-S25D was incubated with Importin-α FL. GST-bound samples were analyzed by SDS–PAGE and stained with Coomassie blue. d Competition binding assay. p115-CTD was incubated with either GST-GM130-WT or GST-GM130-S25D in the presence of indicated concentrations of Importin-α FL. Samples pulled down by GST beads were analyzed by SDS–PAGE and stained with Coomassie blue. e, f Band intensities of Importin-α FL and p115-CTD from the SDS–PAGE gels in d were quantified and normalized by GST-GM130 intensity. Quantitative plots show normalized Importin-α FL intensities (e) and percent p115-CTD remaining on GM130 (f).
To examine whether Importin-α FL also competes with p115-CTD for GM130 binding, we carried out competition binding assays in the presence of Importin-α FL, p115-CTD, and GM130. […] Moreover, we observed a ~2-fold increase in Importin-α FL pulldown by the phosphomimetic mutant (GM130-S25D) compared to wild-type GM130 (40 μM Importin-α FL; Fig. 3d, e). […]

[4] = system: Importin-α (a.a. 70–498); test: CD spectra thermal melting assay of complexes with Importin-α; type: physicochemical; details: CD at 222 nm, 20 to 75 °C, 0.2 mg/ml, 20 mM HEPES pH 7.4, 50 mM NaCl, 3 mM DTT; average of three scans; complex with Importin-α (a.a. 70–498)
Protocol: The CD spectra of the GM130-WT(1–48)•Importin-α (a.a. 70–498), GM130-S25D(1–48)•Importin-α (a.a. 70–498), and GM130-NLS phospho-S25 (a.a. 13–38)•Importin-α (a.a. 70–498) complexes were recorded using an AVIV CD400 spectrometer. Thermal melting temperatures were determined by measuring the ellipticity at a wavelength of 222 nm as a function of temperature from 20 to 75 °C. The protein concentration used in the CD measurements was 0.2 mg/ml in a buffer of 20 mM HEPES (pH 7.4), 50 mM NaCl, and 3 mM DTT. Measurements were taken three times and averaged.

[5] = molecular target: T1, Importin-β (Homo sapiens, UniProt Q14974); test: GST pulldown of Importin-β with RanQ69L (dissociation); type: binding; details: GM130:RanQ69L:Importin 1:4:1; three independent experiments
T1 construct: GST (N, cleaved yes); made in house; host or cells: Escherichia coli Rosetta
Protocol: Fig. 4 Ran and a phosphate moiety repress GM130 and Importin-β interaction. a SEC (Superdex 200) elution profiles for the Importin-β•GST-GM130-WT complex (black line), Importin-β (gray line), and GST-GM130-WT (light gray line). The void volume (Vo) is indicated. b–d The peak fractions of the Importin-β•GST-GM130-WT complex (b), Importin-β (c), and GST-GM130-WT (d) were analyzed by SDS–PAGE and stained with Coomassie blue. e, f ITC titration curves (upper) and binding isotherms (lower) of Importin-β with GM130-NLS WT (e) and GM130-NLS phospho-S25 (f). Kd values are indicated. g Competition binding assay. GST-GM130-S25D and Importin-β were incubated with indicated concentrations of GFP-IBB. Samples pulled down by GST beads were analyzed by SDS–PAGE and stained with Coomassie blue. […] GST-bound samples were analyzed by SDS–PAGE and stained with Coomassie blue. i, k Band intensities of Importin-α or Importin-β from the SDS–PAGE gels in h, j were used to determine averages of bound protein. […]
A 1:1 molar ratio of GST-GM130-WT or mutant GM130 and Importin-α FL was incubated with glutathione-coupled sepharose beads (GE Healthcare). After pre-washing with 150 mM NaCl, proteins were eluted by a buffer containing 50 mM reduced glutathione and analyzed by SDS–PAGE. […]

T1 sequence (Q14974 whole entry): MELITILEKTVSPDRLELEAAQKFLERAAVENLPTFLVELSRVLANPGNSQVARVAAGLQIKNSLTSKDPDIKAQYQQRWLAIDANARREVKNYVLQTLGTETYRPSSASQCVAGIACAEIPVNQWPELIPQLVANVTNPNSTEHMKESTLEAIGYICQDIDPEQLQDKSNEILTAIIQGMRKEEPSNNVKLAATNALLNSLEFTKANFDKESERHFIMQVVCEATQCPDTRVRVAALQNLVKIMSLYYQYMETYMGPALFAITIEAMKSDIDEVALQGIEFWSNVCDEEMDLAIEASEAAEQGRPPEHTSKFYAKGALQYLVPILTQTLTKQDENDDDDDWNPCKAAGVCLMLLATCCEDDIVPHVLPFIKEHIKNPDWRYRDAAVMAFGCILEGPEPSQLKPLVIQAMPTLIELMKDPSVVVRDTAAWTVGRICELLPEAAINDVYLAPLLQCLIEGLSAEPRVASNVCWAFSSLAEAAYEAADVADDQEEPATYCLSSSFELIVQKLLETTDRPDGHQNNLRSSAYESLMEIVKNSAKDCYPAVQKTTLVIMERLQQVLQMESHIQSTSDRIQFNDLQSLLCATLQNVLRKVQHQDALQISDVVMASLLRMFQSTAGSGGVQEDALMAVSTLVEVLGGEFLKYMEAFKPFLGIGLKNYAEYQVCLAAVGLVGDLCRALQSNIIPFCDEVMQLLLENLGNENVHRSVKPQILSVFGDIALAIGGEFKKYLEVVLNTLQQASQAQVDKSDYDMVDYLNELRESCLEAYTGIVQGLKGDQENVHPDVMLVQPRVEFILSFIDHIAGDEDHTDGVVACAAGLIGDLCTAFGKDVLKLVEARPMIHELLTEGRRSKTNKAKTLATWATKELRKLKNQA

Kd [2]: ~980 nM
B1: GM130: GM130 (recombinant N-terminal region), variant not specified at the place (protein)
chain: MWPQPRLPPRPAMSEETRQSKLAAAKKKLREYQQRNSPGVPTGAKKKKKIKNGSNPETTTSGGCHSPEDTPKDNAATLQPSDDTVLPGGVPSPGASLTSMAASQNHDADNVPNLMDETKTFSSTESLRQLSQQLNGLVCESATCVNGEGPASSANLKDLESRYQQLAVALDSSYVTNKQLNITIEKLKQQNQEITDQLEEEKKECHQKQGALREQLQVHIQTIGILVSEKAELQTALAHTQHAARQKEGESEDLASRLQYSRRRVGELERALSAVSTQQKKADRYNKELTKERDALRLELYKNTQSNEDLKQEKSELEEKLRVLVTEKAGMQLNLEELQKKLEMTELLLQQFSSRCEAPDANQQLQQAMEERAQLEAHLGQVMESVRQLQMERDKYAENLKGESAMWRQRMQQMSEQVHTLREEKECSMSRVQELETSLAELRNQMAEPPPPEPPAGPSEVEQQLQAEAEHLRKELEGLAGQLQAQVQDNEGLSRLNREQEERLLELERAAELWGEQAEARRQILETMQNDRTTISRALSQNRELKEQLAELQSGFVKLTNENMEITSALQSEQHVKRELGKKLGELQEKLSELKETVELKSQEAQSLQQQRDQYLGHLQQYVAAYQQLTSEKEVLHNQLLLQTQLVDQLQQQEAQGKAVAEMARQELQETQERLEAATQQNQQLRAQLSLMAHPGEGDGLDREEEEDEEEEEEEAVAVPQPMPSIPEDLESREAMVAFFNSAVASAEEEQARLRGQLKEQRVRCRRLAHLLASAQKEPEAAAPAPGTGGDSVCGETHRALQGAMEKLQSRFMELMQEKADLKERVEELEHRCIQLSGETDTIGEYIALYQSQRAVLKERHREKEEYISRLAQDKEEMKVKLLELQELVLRLVGDRNEWHGRFLAAAQNPADEPTSGAPAPQELGAANQQGDLCEVSLAGSVEPAQGEAREGSPRDNPTAQQIMQLLREMQNPRERPGLGSNPCIPFFYRADENDEVKITVI
Importin-α pulled down more than Importin-β [1]: ~ 10 -fold
Western blot signal of Importin-β reduced compared to Importin-α FL ([1]; same acquisition conditions): more than 10 -fold

p115-CTD remaining on GM130 [3]: ~ 38%
release of Importin-β from Importin-β•GM130 complex by RanQ69L [5]: ~ 47%
B2: GM130-WT: wild type GM130 N-terminal region (a.a. 1-85) (protein)
chain: B1 chain
Tm [4]: ~ 44 °C
